Measurements taken from IntAct's records for PubMed 20059950.

B1: RAC-beta serine/threonine-protein kinase (Homo sapiens), P31751 (parent)
chain: MNEVSVIKEGWLHKRGEYIKTWRPRYFLLKSDGSFIGYKERPEAPDQTLPPLNNFSVAECQLMKTERPRPNTFVIRCLQWTTVIERTFHVDSPDEREEWMRAIQMVANSLKQRAPGEDPMDYKCGSPSDSSTTEEMEVAVSKARAKVTMNDFDYLKLLGKGTFGKVILVREKATGRYYAMKILRKEVIIAKDEVAHTVTESRVLQNTRHPFLTALKYAFQTHDRLCFVMEYANGGELFFHLSRERVFTEERARFYGAEIVSALEYLHSRDVVYRDIKLENLMLDKDGHIKITDFGLCKEGISDGATMKTFCGTPEYLAPEVLEDNDYGRAVDWWGLGVVMYEMMCGRLPFYNQDHERLFELILMEEIRFPRTLSPEAKSLLAGLLKKDPKQRLGGGPSDAKEVMEHRFFLSINWQDVVQKKLLPPFKPQVTSEVDTRYFDDEFTAQSITITPPDRYDSLGLLELDQRTHFPQFSYSASIRE

Variants of: B1
Conditions: with ttc3_human TTC3, P53804
Sequence of ttc3_human TTC3, P53804 (P53804 whole entry): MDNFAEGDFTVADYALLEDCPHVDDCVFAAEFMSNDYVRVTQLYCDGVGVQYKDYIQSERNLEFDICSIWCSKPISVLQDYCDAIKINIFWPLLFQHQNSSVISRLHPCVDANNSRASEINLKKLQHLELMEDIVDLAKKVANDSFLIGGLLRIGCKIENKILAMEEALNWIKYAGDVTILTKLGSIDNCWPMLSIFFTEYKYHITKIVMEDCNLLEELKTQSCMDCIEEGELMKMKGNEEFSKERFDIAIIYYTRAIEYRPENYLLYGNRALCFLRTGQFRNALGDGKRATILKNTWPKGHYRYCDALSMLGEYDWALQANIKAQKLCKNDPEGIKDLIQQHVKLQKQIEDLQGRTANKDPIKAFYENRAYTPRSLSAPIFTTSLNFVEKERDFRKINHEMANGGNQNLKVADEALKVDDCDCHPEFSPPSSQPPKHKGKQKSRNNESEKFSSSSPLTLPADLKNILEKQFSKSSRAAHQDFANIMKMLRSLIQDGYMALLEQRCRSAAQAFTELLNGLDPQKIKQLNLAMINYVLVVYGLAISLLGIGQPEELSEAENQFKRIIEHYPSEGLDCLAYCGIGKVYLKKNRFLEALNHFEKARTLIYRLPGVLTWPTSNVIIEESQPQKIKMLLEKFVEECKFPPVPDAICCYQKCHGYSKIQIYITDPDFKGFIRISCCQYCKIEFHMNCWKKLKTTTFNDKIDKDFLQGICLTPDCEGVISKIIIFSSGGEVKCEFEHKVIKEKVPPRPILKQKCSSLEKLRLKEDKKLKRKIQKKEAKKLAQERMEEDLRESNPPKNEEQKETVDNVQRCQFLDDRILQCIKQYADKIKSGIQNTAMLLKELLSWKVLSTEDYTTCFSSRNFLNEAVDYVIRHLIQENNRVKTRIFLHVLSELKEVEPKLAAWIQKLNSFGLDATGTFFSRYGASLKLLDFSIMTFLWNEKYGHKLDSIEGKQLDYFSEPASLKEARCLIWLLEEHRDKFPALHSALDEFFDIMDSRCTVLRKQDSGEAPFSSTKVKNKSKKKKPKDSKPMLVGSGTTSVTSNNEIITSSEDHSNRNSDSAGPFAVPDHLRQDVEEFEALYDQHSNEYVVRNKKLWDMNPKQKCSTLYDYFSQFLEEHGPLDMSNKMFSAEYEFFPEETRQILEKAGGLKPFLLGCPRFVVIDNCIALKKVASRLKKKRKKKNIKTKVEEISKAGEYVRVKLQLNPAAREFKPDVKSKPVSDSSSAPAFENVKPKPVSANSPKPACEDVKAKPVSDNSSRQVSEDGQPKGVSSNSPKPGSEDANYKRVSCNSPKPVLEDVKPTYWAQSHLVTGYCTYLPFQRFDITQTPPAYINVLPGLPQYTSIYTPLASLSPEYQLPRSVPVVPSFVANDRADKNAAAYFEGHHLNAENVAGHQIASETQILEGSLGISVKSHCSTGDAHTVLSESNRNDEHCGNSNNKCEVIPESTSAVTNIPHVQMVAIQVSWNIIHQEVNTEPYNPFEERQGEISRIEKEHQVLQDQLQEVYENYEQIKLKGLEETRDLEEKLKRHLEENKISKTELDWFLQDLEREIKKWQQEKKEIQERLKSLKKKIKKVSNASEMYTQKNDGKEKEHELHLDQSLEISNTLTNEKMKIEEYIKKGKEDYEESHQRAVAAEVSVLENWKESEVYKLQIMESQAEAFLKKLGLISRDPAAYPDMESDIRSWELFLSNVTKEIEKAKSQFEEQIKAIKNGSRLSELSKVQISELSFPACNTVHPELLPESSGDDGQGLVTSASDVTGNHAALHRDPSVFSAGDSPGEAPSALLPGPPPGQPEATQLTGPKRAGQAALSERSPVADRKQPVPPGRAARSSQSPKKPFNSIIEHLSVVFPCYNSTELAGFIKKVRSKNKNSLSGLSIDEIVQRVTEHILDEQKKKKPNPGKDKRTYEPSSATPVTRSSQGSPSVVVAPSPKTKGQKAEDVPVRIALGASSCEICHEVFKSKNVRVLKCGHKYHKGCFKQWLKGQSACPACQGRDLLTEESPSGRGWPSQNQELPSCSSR

Question: Which “effect of a mutation on the interaction” value does the source give for T309A;S474A here?
Answer: Its value is “disrupting interaction strength”.
